Numbering of substitutions follows the chain as printed. Names may count otherwise.
T1: MORT-1 fragment, amino acids 130-245 (C-terminal part with the death domain homology region) (human, UniProt Q13158 82-197)
T1 construct: Gal4 fusion in two-hybrid tests; expressed untagged in HeLa cells for the cytotoxicity test; also called MORT-1 DD; MORT-1 dd
T1 sequence: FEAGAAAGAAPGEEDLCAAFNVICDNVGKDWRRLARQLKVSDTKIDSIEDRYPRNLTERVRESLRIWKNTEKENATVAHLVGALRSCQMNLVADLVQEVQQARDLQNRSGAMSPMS

T2: mouse Fas-IC with replacement mutation I225A (mouse, UniProt P25446 187-327)
T2 construct: domain: intracellular domain
T2 sequence (looked up): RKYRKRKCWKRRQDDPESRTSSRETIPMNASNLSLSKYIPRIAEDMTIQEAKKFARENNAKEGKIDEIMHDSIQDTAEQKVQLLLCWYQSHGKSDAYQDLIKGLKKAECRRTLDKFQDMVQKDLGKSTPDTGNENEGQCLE

T3: mouse Fas-IC with replacement mutation I225N (mouse, UniProt P25446 187-327)
T3 construct: domain: intracellular domain; The text calls the change 'Ile to Leu' but labels it I225N; also called lpr^eg mutation
T3 sequence (looked up): T2 sequence (looked up) with A60N

B1: MORT-1 protein (full-length) (other)
chain: VNQAPECRFGGGILGPLGKRRDLARASEPRTEGARRAGPQPRPLADPAMDPFLVLLHSVSSSLSSSELTELKFLCLGRVVKRKLERVQSGLDLFSMLLEQNDLEPGHTELLRELLASLRRHDLLRRVDDFEAGAAAGAAPGEEDLCAAFNVICDNVGKDWRRLARQLKVSDTKIDSIEDRYPRNLTERVRESLRIWKNTEKENATVAHLVGALRSCQMNLVADLVQEVQQARDLQNRSGAMSPMSWNSDASTSEAS
notes: Full-length construct; also called HF1; FADD
B2: MACH (construct with the full-length MACH cDNA) (other)
chain: MDFSRNLYDIGEQLDSEDLASLKFLSLDYIPQRKQEPIKDALMLFQRLQEKRMLEESNLSFLKELLFRINRLDLLITYLNTRKEEMERELQTPGRAQISAYRVMLYQISEEVSRSELRSFKFLLQEEISKCKLDDDMNLLDIFIEMEKRVILGEGKLDILKRVCAQINKSLLKIINDYEEFSKERSSSLEGSPDEFSNDFGQSLPNEKQTSGILSDHQQSQFCKSTGESAQTSQH
notes: also called MORT-2
B3: MACHβ1 (ORF-B of MACH) (other)
chain: B2 chain
notes: Gal4 fusion in two-hybrid tests; also called MACH B; MACH ORF-B
B4: MACHα1 mutant in which the catalytic cysteine Cys360 is replaced by Ser (enzyme)
chain: MDFSRNLYDIGEQLDSEDLASLKFLSLDYIPQRKQEPIKDALMLFQRLQEKRMLEESNLSFLKELLFRINRLDLLITYLNTRKEEMERELQTPGRAQISAYRVMLYQISEEVSRSELRSFKFLLQEEISKCKLDDDMNLLDIFIEMEKRVILGEGKLDILKRVCAQINKSLLKIINDYEEFSKERSSSLEGSPDEFSNGEELCGVMTISDSPREQDSESQTLDKVYQMKSKPRGYCLIINNHNFAKAREKVPKLHSIRDRNGTHLDAGALTTTFEELHFEIKPHDDCTVEQIYEILKIYQLMDHSNMDCFICCILSHGDKGIIYGTDGQEAPIYELTSQFTGLKCPSLAGKPKVFFIQASQGDNYQKGIPVETDSEEQPYLEMDLSSPQTRYIPDEADFLLGMATVNNCVSYRNPAEGTWYIQSLCQSLRERCPRGDDILTILTEVNYEVSNKDDKKNMGKQMPQPTFTLRKKLVFPSD
notes: Gal4 fusion in two-hybrid tests; also called MACHα1 (C360S); MACHα (C360S)
B5: intracellular domain of human p55 TNF receptor (residues 206-426) (receptor, UniProt P19438 235-455, looked up)
chain: RYQRWKSKLYSIVCGKSTPEKEGELEGTTTKPLAPNPSFSPTPGFTPTLGFSPVPSSTFTSSSTYTPGDCPNFAAPRREVAPPYQGADPILATALASDPIPNPLQKWEDSAHKPQSLDTDDPATLYAVVENVPPLRWKEFVRRLGLSDHEIDRLELQNGRCLREAQYSMLATWRRRTPRREATLELLGRVLRDMDLLGCLEDIEEALCGPAALPPAPSLLR
notes: range 206-426; Gal4 fusion in two-hybrid tests; also called p55-IC; p55 IC
B6: MORT-1 fragment, amino acids 1-117 (N-terminal part) (other)
chain: VNQAPECRFGGGILGPLGKRRDLARASEPRTEGARRAGPQPRPLADPAMDPFLVLLHSVSSSLSSSELTELKFLCLGRVVKRKLERVQSGLDLFSMLLEQNDLEPGHTELLRELLAS
notes: Gal4 fusion in two-hybrid tests; also called MORT-1 head; MORT 'head'

Legend:
[1] = target: T4, 'empty' Gal4 DNA-binding-domain vector pGBT9 (UniProt P04386 1-147); experiment: yeast two-hybrid, β-galactosidase test (FIG. 1); empty pGBT9 is named as a negative control in paragraph 206
T4 construct: Negative control

[2] = target: B3; experiment: yeast two-hybrid, β-galactosidase filter assay
Method: (§1) The yeast two-hybrid test was further applied to evaluate the specificity of binding of MACH to MORT-1, in particular, to define the region in MORT-1 to which MACH binds, as well as to determine which of the MACH ORFs interacts with MORT-1, the procedures being as set forth herein above in Examples 1 and 2. Briefly, various MORT-1 and MACH constructs were prepared for testing the interaction of the proteins encoded by the Gal4 DNA-binding domain and activation domain constructs within transfected SFY526 yeast cells as assessed by the β-galactosidase expression filter assay. The DNA-binding domain constructs were prepared in pGBT9 vectors and the activation domain constructs were prepared in pGAD-GM vectors. For the activation domain constructs, the full-length MACH cDNA was used (MACH), as was a construct encoding only the ORF-B (MACH B) region. Control activation domain constructs were those containing the full-length MORT-1 coding sequence (MORT 1, positive control) and those having no inserts, i.e., “empty” vectors (pGAD-GM). […] Control DNA-binding domain constructs, which were constructed to determine also the specificity of the MACH binding, included constructs encoding lamin (Lamin), residues 287-461 of the intracellular domain of the human p75 TNF-R (human p75 IC), cyclic D (cycD), SNF1, residues 206-426 of the intracellular domain of the human p55 TNF-R (human p55 IC), the ‘death domain’ region of the intracellular domain of the human Fas-R (human Fas DD), residues 216-277 of the intracellular domain of the human CD40 (human CD40 IC), vectors without insert or “empty” pGBT9 vectors (pGBT9, negative control), and a construct encoding the ORF-B region of MACH (MACH B). In the assay, the development of color was determined, where the greater the color development, the greater the interaction between the constructs encoded by the DNA-binding domain and activation domain; Color development was depicted by symbols, where “+++” and “+” indicate the development of a strong color within 30 and 90 min. of the assay, respectively, and “−−−” indicates the lack of development of color within 24 hrs. of the assay. In cases where interactions were not tested, no symbol was indicated.

[3] = target: the molecule itself; experiment: yeast two-hybrid, β-galactosidase filter assay
Method: as §1

[4] = target: B5; experiment: yeast two-hybrid, β-galactosidase test (FIG. 1)
[5] = target: T1, MORT-1 fragment, amino acids 130-245 …; experiment: yeast two-hybrid, β-galactosidase test (FIG. 1)
[6] = target: T2, mouse Fas-IC with replacement mutation …; experiment: yeast two-hybrid, β-galactosidase test (FIG. 1)
[7] = target: T3, mouse Fas-IC with replacement mutation …; experiment: yeast two-hybrid, β-galactosidase test (FIG. 1)
[8] = target: B1; experiment: yeast two-hybrid, β-galactosidase filter assay
Method: as §1

[9] = target: T5, MACHα1 (human, UniProt Q14790 1-479); experiment: yeast two-hybrid
T5 construct: Gal4 fusion in two-hybrid tests; also called wild-type MACHα1
Method: (§2) In FIG. 5, there is shown the results of the interaction of MORT-1 and MACH within transfected yeast cells. Briefly, MORT-1 and MACHβ1 and their deletion constructs, as well as MACHα1, a MACHα1 mutant in which the catalytic cysteine Cys₃₆₀ is replaced by Ser (MACHα1 (C360S)) and the intracellular domain of human FAS-R (Fas-IC), were expressed within transfected SFY526 yeast in Gal4 DNA binding domain and activation domain constructs (pGBT9 and pGAD-GH). Their interaction was assessed by a β-galactosidase expression filter assay as described in Boldin et al (1995b). The results are presented in terms of the time required for the development of strong color. […] None of the inserts examined interacted with a number of tested negative controls, including the intracellular domains of human p55 TNF receptor, p75 TNF receptor and CD40, and lamin, cyclin D and ‘empty’ Gal4 vectors. MACHβ1 was cloned by two hybrid screening of a Gal4 AD-tagged human B cell library (Durfee et al, 1993) for proteins that bind to MORT-1, using the HF7c Yeast reporter strain. Except where otherwise indicated, all experimental procedures for the findings presented are as described above (see also Boldin et al, 1995). […] MACHβ1 also self-associated in the transfected yeast. […] Expression of MACHβ1 molecules in mammalian cells yielded a 34 kDa protein that bound to MORT-1 molecules co-expressed with it. It was also able to bind to a GST-MORT-1 fusion protein in vitro.

[10] = target: B4; experiment: yeast two-hybrid
Method: as §2

[11] = target: B5; experiment: yeast two-hybrid, β-gal filter assay (FIG. 5)
[12] = target: the molecule itself; experiment: yeast two-hybrid
Method: as §2

[13] = target: T5, MACHα1; experiment: yeast two-hybrid, β-gal filter assay (FIG. 5)
[14] = target: B4; experiment: yeast two-hybrid, β-gal filter assay (FIG. 5)
[15] = target: the molecule itself; experiment: yeast two-hybrid, β-galactosidase test (FIG. 1)

T4 sequence (P04386 1-147 limits assumed): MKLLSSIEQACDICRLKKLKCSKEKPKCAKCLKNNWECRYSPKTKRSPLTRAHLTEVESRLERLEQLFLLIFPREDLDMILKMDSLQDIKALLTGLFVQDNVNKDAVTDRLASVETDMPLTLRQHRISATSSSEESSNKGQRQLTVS

Q: Which results are given for B1?
A: binding result [1]: no binding; time to development of strong color (beta-galactosidase filter assay, yeast two-hybrid) [2]: 30 to 90 min; time to development of strong color (beta-galactosidase filter assay, yeast two-hybrid) [3]: ≤ 30 min; binding result [4]: no binding; binding result [5]: no binding; binding result [6]: no binding; binding result [7]: no binding

Q: How did the “time to development of strong color (beta-galactosidase filter assay, yeast two-hybrid)” value (“time to development of strong color” for short) [8] turn out when B2 was run?
A: ≤ 30 min

Q: For B3, which “time to development of strong color” value [8] is on record?
A: ≤ 30 min

Q: And the “time to development of strong color” value [3]?
A: 30 to 90 min

Q: Does B3 bind [9]?
A: binds

Q: Does B3 bind [10]?
A: binds

Q: Does B3 bind [11]?
A: no binding

Q: Does B4 bind [12]?
A: binds

Q: Does B5 bind [13]?
A: no binding

Q: Does B5 bind [14]?
A: no binding

Q: Does B6 bind [15]?
A: no binding
